The target of test [1] is Arabidopsis histone H2A (HTA1)-H2B (HTB1) dimer (Arabidopsis thaliana) (UniProt Q9LD28). Put plainly: ITC; MicroCal iTC200; OsChz1-C or its mutants injected into histone H2A-H2B or H2A.Z-H2B solutions; 19 injections of 2 μl.
Test [2] addresses Arabidopsis histone variant H2A.Z (HTA9)-H2B (HTB1) dimer (Arabidopsis thaliana) (UniProt Q9C944). Described as above.
The target in test [3] is Arabidopsis histone H2A (HTA1)-H2B (HTB1) dimer, Q9LD28;Q9LQQ4. Briefly: ITC.

Arabidopsis histone H2A (HTA1)-H2B (HTB1) dimer (Arabidopsis thaliana), sequence (Q9LD28 whole entry, chain 1 of 2): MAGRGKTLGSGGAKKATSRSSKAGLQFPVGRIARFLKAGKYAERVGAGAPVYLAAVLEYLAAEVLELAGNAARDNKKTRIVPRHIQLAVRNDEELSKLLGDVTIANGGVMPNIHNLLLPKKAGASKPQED
Arabidopsis histone H2A (HTA1)-H2B (HTB1) dimer (Arabidopsis thaliana), sequence (Q9LQQ4 whole entry, chain 2 of 2, further chain): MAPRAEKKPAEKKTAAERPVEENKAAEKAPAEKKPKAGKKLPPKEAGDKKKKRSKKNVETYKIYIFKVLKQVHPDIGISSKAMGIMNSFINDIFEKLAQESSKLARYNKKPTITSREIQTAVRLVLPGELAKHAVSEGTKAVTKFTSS

In the case of “OsChz1-C (OsChz1 338–471), wild type (domain or fragment)”, the Kd in test [1] was 9.8 nM; in test [2] it was 64.1 nM.
OsChz1-C (OsChz1 338–471), wild type 1M gave a Kd in test [3] of 150 nM.
For OsChz1-C (OsChz1 338–471), wild type 3M, the Kd in test [3] amounted to 146 nM.
Regarding OsChz1-C (OsChz1 338–471), wild type 2M, the Kd in test [3] stood at 259 nM.

Values taken from publication PMC7658359.
